The target of test [1] is CT45-IP antigenic peptide (…) in complex with HLA-A*02 presented on cells (peptide-loaded T2 cells; NCIH1703 and A375 tumor cells) (human). Nature of the test: cell-based or functional assay.
Test [2] addresses T1, similar peptide SP-05-0002, source protein not stated peptide on HLA-A*02:01 (human).
T1 peptide: KIFSGLLKV
Nature of the test: killing.

The target in test [3] is T2, similar peptide SP-05-0003, source protein not stated peptide on HLA-A*02:01 (human).
T2 peptide: KVTEMLVNV
Nature of the test: killing.

Test [4] concerns the target T3, similar peptide SP-05-0004, source protein not stated peptide on HLA-A*02:01 (human).
T3 peptide: KIWEWLVGV
Put plainly: killing.

The target of test [5] is T4, similar peptide SP-05-0005, source protein not stated peptide on HLA-A*02:01 (human).
T4 peptide: KIEEFLEAV
Nature of the test: killing.

For test [6], the target named is T5, similar peptide SP-05-0006, source protein not stated peptide on HLA-A*02:01 (human).
T5 peptide: KIAELLENV
Nature of the test: killing.

The target in test [7] is T6, similar peptide SP-05-0007, source protein not stated peptide on HLA-A*02:01 (human).
T6 peptide: KIFPALCTV
Put plainly: killing.

In test [8] the target is T7, similar peptide SP-05-0008, source protein not stated peptide on HLA-A*02:01 (human).
T7 peptide: KILDELEKV
Nature of the test: killing.

The target in test [9] is T8, similar peptide SP-05-0009, source protein not stated peptide on HLA-A*02:01 (human).
T8 peptide: KIIDLLPKV
Put plainly: killing.

Test [10] concerns the target T9, similar peptide SP-05-0010, source protein not stated peptide on HLA-A*02:01 (human).
T9 peptide: RIFETVNSV
Nature of the test: killing.

The target of test [11] is T10, CT45-IP alanine variant, position 1 peptide on HLA-A*02:01 (human).
T10 peptide: AIFEMLEGV
Nature of the test: killing.

The target in test [12] is T11, CT45-IP alanine variant, position 3 peptide on HLA-A*02:01 (human).
T11 peptide: KIAEMLEGV
Nature of the test: killing.

Test [13] addresses T12, CT45-IP alanine variant, position 4 peptide on HLA-A*02:01 (human).
T12 peptide: KIFAMLEGV
Put plainly: killing.

Test [14] addresses T13, CT45-IP alanine variant, position 8 peptide on HLA-A*02:01 (human).
T13 peptide: KIFEMLEAV
Put plainly: killing.

The target in test [15] is T14, similar peptide SP-05-0001, source protein not stated peptide on HLA-A*02:01 (human).
T14 peptide: HIMEHLEGV
Nature of the test: killing.

The target in test [16] is CT45-IP-HLA-A*02 dextramer (human). Nature of the test: flow cytometry, dextramer staining of TCR-mRNA electroporated T cells, gated on CD3+. (In general: Flow cytometry measures light scatter and fluorescence of single cells or particles in a stream.)
Test [17] has as its target T15, CT45 (CT45A1, A2, A3, A5 to A10); CT45-IP peptide on HLA-A*02:01 (human).
T15 peptide: KIFEMLEGV
Nature of the test: luciferase release, 24 h, 1:1; CD8+ T cells with TCR mRNA, T2 cells with titrated peptide; full-length, on cells.

The target in test [18] is T15, CT45 (CT45A1, A2, A3, A5 to A10); …. Put plainly: CT45-IP-HLA-A*02 dextramer on T cells with TCR mRNA; TCR found by tetramer sorting; full-length, on cells.
Test [19] has as its target T16, CT45-IP alanine variant, position 7 peptide on HLA-A*02:01 (human).
T16 peptide: KIFEMLAGV
Nature of the test: killing.

Test [20] addresses T17, CT45-IP alanine variant, position 5 peptide on HLA-A*02:01 (human).
T17 peptide: KIFEALEGV
Put plainly: killing.

For test [21], the target named is T18, CT45-IP alanine variant, position 6 peptide on HLA-A*02:01 (human).
T18 peptide: KIFEMAEGV
Nature of the test: killing.

Values joined by “and” are separate entries in the source; they are usually repeats but may differ in a detail not shown here. Equal entries are not always repeated.

B1: TCR-10 (TCR, V domains shown)
Valpha: QNIDQPTEMTATEGAIVQINCTYQTSGFNGLFWYQQHAGEAPTFLSYNVLDGLEEKGRFSSFLSRSKGYSYLLLKELQMKDSASYLCAVPAPYTGTASKLTFGTGTRLQVTL
Vbeta: GVTQTPKFQVLKTGQSMTLQCAQDMNHNSMYWYRQDPGMGLRLIYYSASEGTTDKGEVPNGYNVSRLNKREFSLRLESAAPSQTSVYFCASSEGYSTYNEQFFGPGTRLTVL
Molecule B1 registered an EC50, half maximal killing capacity (functional avidity; CT45-IP peptide titration on T2 cells, luciferase release) in test [1] of 8.75 nM. Also, the binding result in [2], in test [3], in test [4], in test [5], in [6] and in test [7] was “no recognition” throughout. Also, the binding result is “no recognition” in [8]; “no recognition” in test [9]; “no recognition” in [10]; “recognises” in [11]; “recognises” in [12]; “recognises” in [13]. Also, the figures for the binding result in [14] and in test [15] were “recognises” and “no recognition”, respectively. In test [16], the surface expression, % positive events by CT45-IP-HLA-A2*02 dextramer staining came out at 52.8%. This molecule also registered an EC50 of peptide in test [17] of 8.75 nM. In test [18], this molecule gave a dextramer-positive events of 52.8%.

B2: TCR-11 (TCR, V domains shown)
Valpha: IQVEQSPPDLILQEGANSTLRCNFSDSVNNLQWFHQNPWGQLINLFYIPSGTKQNGRLSATTVATERYSLLYISSSQTTDSGVYFCAVNTGTASKLTFGTGTRLQVTL
Vbeta: GVTQTPKFQVLKTGQSMTLQCAQDMNHNSMYWYRQDPGMGLRLIYYSASEGTTDKGEVPNGYNVSRLNKREFSLRLESAAPSQTSVYFCASSPRGQGRSYEQYFGPGTRLTVT
B2: in [1], the EC50, half maximal killing capacity (functional avidity; CT45-IP peptide titration on T2 cells, luciferase release) came to 59.5 nM. In addition, the binding result in [2], in [3], in [4], in test [5], in [6] and in test [7] was “no recognition” in each case. Also, the binding result in [8] is given as “no recognition”; in [9], “no recognition”; in test [10], “no recognition”; in [19] it was “recognises”; in test [15], “no recognition”. In addition, the surface expression, % positive events by CT45-IP-HLA-A2*02 dextramer staining in test [16] is 0.53% and 6.6%. The EC50 of peptide in test [17] was found to be 59.5 nM. Further, in test [18], the dextramer-positive events is 6.6%.

B3: TCR-7 (TCR, V domains shown)
Valpha: QTVTQSQPEMSVQEAETVTLSCTYDTSESDYYLFWYKQPPSRQMILVIRQEAYKQQNATENRFSVNFQKAAKSFSLKISDSQLGDAAMYFCTFRYGGATNKLIFGTGTLLAVQP
Vbeta: GVIQSPRHLIKEKRETATLKCYPIPRHDTVYWYQQGPGQDPQFLISFYEKMQSDKGSIPDRFSAQQFSDYHSELNMSSLELGDSALYFCASRGGWAETPDTQYFGPGTRLTVL
B3 came in with an EC50, half maximal killing capacity (functional avidity; CT45-IP peptide titration on T2 cells, luciferase release) in test [1] of 0.48 nM. The binding result in test [2], in test [3], in test [4], in test [5], in test [6] and in [7] was “no recognition” in each case. Also, the binding result in test [8] is “no recognition”; in test [9], “no recognition”; in [10], “no recognition”; in test [12], “recognises”; in [20] it was “recognises”; in [14], “recognises”. In addition, the binding result in test [15] is recorded as “no recognition”. The molecule further displayed a surface expression, % positive events by CT45-IP-HLA-A2*02 dextramer staining in [16] of 53.3%. In test [17], this molecule had an EC50 of peptide of 0.48 nM. Further, the dextramer-positive events in test [18] came out at 53.3%.

B4: TCR-14 (TCR, V domains shown)
Valpha: QKITQTQPGMFVQEKEAVTLDCTYDTSDQSYGLFWYKQPSSGEMIFLIYQGSYDEQNATEGRYSLNFQKARKSANLVISASQLGDSAMYFCAINGLPGSARQLTFGSGTQLTVLP
Vbeta: GVAQSPRYKIIEKRQSVAFWCNPISGHATLYWYQQILGQGPKLLIQFQNNGVVDDSQLPKDRFSAERLKGVDSTLKIQPAKLEDSAVYLCASSRFVATGTSPLHFGNGTRLTVT
Turning to B4, the EC50, half maximal killing capacity (functional avidity; CT45-IP peptide titration on T2 cells, luciferase release) in test [1] worked out at 17.7 nM. For the same molecule, the binding result in test [2], in test [3], in test [4], in test [5], in [6] and in test [7] was “no recognition” in each case. Moreover, the binding result in [8] is on record as “no recognition”; in test [9], “no recognition”; in test [10], “no recognition”; in test [21], “recognises”; in test [19], “recognises”; in test [14] it was “recognises”. Also, the binding result in [15] was “no recognition”. In test [16], this molecule showed a surface expression, % positive events by CT45-IP-HLA-A2*02 dextramer staining of 11.6%. The same molecule gave an EC50 of peptide in [17] of 17.7 nM. Further, in test [18], the dextramer-positive events turned out to be 11.6%.

B5: TCR-6 (TCR, V domains shown)
Valpha: QKEVEQDPGPLSVPEGAIVSLNCTYSNSAFQYFMWYRQYSRKGPELLMYTYSSGNKEDGRFTAQVDKSSKYISLFIRDSQPSDSATYLCAMSGNSGARDYGNNRLAFGKGNQVVVIP
Vbeta: EVTQTPKHLVMGMTNKKSLKCEQHMGHRAMYWYKQKAKKPPELMFVYSYEKLSINESVPSRFSPECPNSSLLNLHLHALQPEDSALYLCASATWEEAGPYNEQFFGPGTRLTVL
B5: the EC50, half maximal killing capacity (functional avidity; CT45-IP peptide titration on T2 cells, luciferase release) in [1] was found to be 3.25 nM. Besides, the binding result in test [2], in test [3], in [5], in test [6], in test [7] and in test [8] was “no recognition” each time. Further, the binding result in test [9] was “no recognition”; in test [10] it was “no recognition”; in [20] it was “recognises”; in test [19] it was “recognises”; in test [14], “recognises”; in [15] it was “no recognition”. In addition, in [16], the surface expression, % positive events by CT45-IP-HLA-A2*02 dextramer staining was determined as 2.9%. Further, in test [17], the EC50 of peptide was determined as 3.25 nM. Further, the dextramer-positive events in test [18] was determined as 2.9%.
